Assay results: patent US20230250157A1 (published 2023)

Legend:
Test in all cases: ELISA
[1] = target: Rs4081 RBD
[2] = target: SHC014 RBD
[3] = target: BtKY72 RBD
[4] = target: LyRa3 RBD
[5] = target: BM4831 RBD
[6] = target: RsSTT200 RBD
[7] = target: C028 RBD
[8] = target: Khosta2 RBD
[9] = target: RaTG13 RBD
[10] = target: Pang17 RBD
[11] = target: Yun11 RBD
[12] = target: RmYN02 RBD
[13] = target: Rf1 RBD

Measured: EC50

B1: M8a-15 (antibody, V domains shown)
VH: QVQLQQSGPELARPGASVKLSCRASGYTVTSFGLSWMKQRTGQGLEWIGEIYPTSKNTYYNDKFRTKATLTADKSSSTAYMELRSLTSEDSAVYFCVLYDYFDYWGQGTTLTVSS
VL: QIVLTQSPAIMSASPGEKVTISCSASSSVSYMYWYQQKTGSSPKPWIYRTSNLASGVPVRFSGSGSGTSYSLTISSMEAEDAATYYCQQYQSYPRTFGGGTKLEIK
> 10 µg/mL: [1] | [2] | [3] | [4] | [5] | [6] | [7] | [8] | [9] | [10]

B2: M8a-6 (antibody, V domains shown)
VH: QVQLQQPGTELVMPGASVKLSCKTSGYTFTHYWMHWVKQRPGEGLEWIGEIAPSDNYVKYNQKFKGKSTLSVDRSSSTAYMQLSSLTSEDSAVYFCARPDNSGYPVYFDYWGQGTSLTVSS
VL: DIVMTQSQKFMSTSLGDRVSISCKASQDVGTTVAWYQQKPGQSPKLLIYWASTRHTGVPDRFTGTGSGTDYTLTISSVAAEDLALYYCQQHYNTPYTFGGGTKLEIE
> 10 µg/mL: [1] | [3] | [4] | [5] | [8]

B3: M8a-30 (antibody, V domains shown)
VH: QVHLQQSGPELVKPGASVKISCKASGYGFSSSWMNWVKQRPGKGLEWIGRIYPGDGDTNYNDKFQGKATLTADRSSSTAYMHLTSLTSADSAVYFCARSLLYSFDYWGQGTTLTVSS
VL: DVVVTQTPLSLPVSFGDQVSISCRSSQSLAGSYGHTYLSWYLHKSGQSPQLLIYGISNRFSGVPDRFSGSGSGTDFTLKISTIKPEDLGMYYCLQGTHQPLTFGAGTKLELK
> 10 µg/mL: [5] | [6] | [7] | [8] | [9]

B4: HSW-1 (antibody, V domains shown)
VH: QVQLQQPGAELVKPGTSMKLSCKASGYTFTSYWMHWVKQRPGQGLEWIGMIHPNSGSTKYNENFKSKATLTVDKSSSTAYMQFSSLTSEDSAVYYCVRSGSYYGTTYDYFDYWGQGTTLTVSS
VL: DIVLTQSPASLAVSLGQRATISCRASESVNIYGNSFMHWYQQKPGQPPKLLIFRASNLESGIPVRFSGSGSRTDFTLTINPVEADDVATYYCHQSNEDPFTFGSGTKLEIK
> 10 µg/mL: [11] | [5] | [8]

B5: M8a-28 (antibody, V domains shown)
VH: QVQLQQPGAELVKPGASVKMSCKASGYNFNHYWISWVKQRPGQGLEWIGDIYPLSHFTTYNEKFTNRATLTVDTSSTTAYMQLNSLTSDDSAVFYCARWDYFDSRTFDYWGQGTTLTVSS
VL: DILLTQFPAILSVSPGERVSFSCRASQTIGTNIHWYQQRINGSPRLLIKYASESISGIPSRFSGSGSGTDFSLSINNVESEDIADYYCQQINSWPLTFGAGTKLDLK
> 10 µg/mL: [5] | [10]

B6: M8a-25 (antibody, V domains shown)
VH: EVQLQQSVAELVRPGASVKLSCTASGFNIKNTYMHWVKQRPEQGLEWIGRIDPSIDHTRYAPKFQGKAVITAFTSSNTAYLQLSSLTSEDTAIYYCAREGGGNYPYYYAIDYWGQGTSVTVSS
VL: DIQMTQSSSSFSVSLGDRVTITCKASEDIYIRLAWYQQRPGNAPRLLISNAISLETGVPSRFSGSGFGKDHTLSITSLQTEDVATYYCQQYWSTPWTFGGGTKLEIK
> 10 µg/mL: [1] | [2] | [3] | [4] | [11] | [5] | [6] | [7] | [8] | [9] | [10]

B7: M8a-11 (antibody, V domains shown)
VH: EVQLQQSGPELVKPGASVKIPCKASGYTFTDYNMDWVKQSHEKSLEWIGEIDPNNGDTIYNQKFKGKASLTVDKSSSTAYMELRSLTSEDTAVYYCAKRGYYGSSLWWYFDVWGTGTTVTVSS
VL: DIQMTQSSSSFSVSLGDRVTITCKASEDIYIRLAWYQQRPGNAPRLLISNAISLETGVPSRFSGSGSGKDYTLSITSLQTEDVATYYCQQYWSTPWTFGGGTKLEIK
> 10 µg/mL: [2] | [3] | [4] | [5] | [6] | [7] | [8] | [9] | [10]

B8: M8a-29 (antibody, V domains shown)
VH: EVQLQQSVAELVRPGASVKLSCTASGFNIKNTYMHWVKQRPEQGLEWIGRIDPSIDHTRYAPKFQGKAVITAFTSSNTAYLQLSSLTSEDTAIYYCAREGGGNYPYYYAIDYWGQGTSVTVSS
VL: DIVMTQAAFSNPVTLGTSASISCRSTKSLLHSNGITYLYWYLQKPGQSPQLLIYQMSNLASGVPDRFSSSGSGTDFTLRISRVEAEDVGVYYCAQNLELPYTFGGGTKLEIK
> 10 µg/mL: [2] | [3] | [4] | [11] | [5] | [6] | [7] | [12] | [8] | [13] | [9] | [10]

B9: M8a-3 (antibody, V domains shown)
VH: QVQLQQPGAELVLPGASVKLSCKASGYTFTNYWMHWVKQRPGHGLEWIGEIDPFDTYIKINQKFKGKSTLTVDTSSSTAYMQLSSLTSEDSAVYYCARPDSSGYPVYFDYWGQGTTLTVSS
VL: DIVMTQSHKFMSTSVGDRVSITCKASQDVGTYIAWYQQKPGQSPKLLIYWASTRHTGVPDRFTGSGSGTNYTLTISSVQAEDLALYHCQQHYSTPYTFGGGTKLEIK
> 10 µg/mL: [5] | [13]

B10: M8a-7 (antibody, V domains shown)
VH: QAYLQQSGAEMVRPGASVKMSCKASGYTFNNYNMHWVKQTPSQGLEWIGGFYPGNDDTAYSQKFKGKATLTVDKSSSTAFMHLSSLTSEDSAVYFCARSLGRYYAMDYWGQGTSVTVSS
VL: not shown
> 10 µg/mL: [1] | [2] | [3] | [11] | [5] | [6] | [7] | [12] | [8] | [13] | [9] | [10]
